Assay results as given in PMC7672607.

Experiments:
Test in all cases: flow cytometry on cells; K562/HLA-F*01:0x cells stripped of bound peptides with citrate phosphate buffer, with or without 200 µM HBB peptide (4 h, 37 °C, serum-free medium); Fc-block 20 min 4 °C; KIR3DS1-Fc 25 µg/mL, 40 min, 4 °C; detected with goat anti-human IgG Fc PE; n = 3
[1] = target: HLA-F*01:01 on K562 cells loaded with the HBB peptide … (human | human (endogenous in K562))
[2] = target: HLA-F*01:03 on K562 cells loaded with the HBB peptide … (human | human (endogenous in K562))
[3] = target: HLA-F*01:04 on K562 cells loaded with the HBB peptide … (human | human (endogenous in K562))

percent decrease of KIR3DS1 binding against the same cells without HBB peptide [1]: 36.2%
percent decrease of KIR3DS1 binding against the same cells without HBB peptide [2]: 27.9%
percent decrease of KIR3DS1 binding against the same cells without HBB peptide [3]: 16.5%
Substance: recombinant KIR3DS1-Fc chimeric protein (from UniProt Q14943 22-340) (Fc fusion)
